B1: Ankyrin-3, residues 4094 to 4171; numbered along this chain, Q12955 (parent)
chain: MAIVADHLGLSWTELARELNFSVDEINQIRVENPNSLISQSFMLLKKWVTRDGKNATTDALTSVLTKINRIDIVTLLE

Variants of: B1
Test: abundance fitness (aPCA) (normalised: wild type 0, dead -1); higher = more abundant; growth selection in yeast, the domain comes from the species named
Conditions: Homo sapiens

Abundance fitness, by site and new letter:
Q40: P -0.646; V -0.894; T -0.725; C -0.127; A -0.064; W -0.736; G -0.74; I -0.663; S -0.312; N -1.03; L -0.833; Y -0.672; H -0.622; K -0.35; R -0.407; D -0.726; F -0.74
V31: M -0.191; W -0.165; S -0.006; T 0.026; K 0.044; E -0.139; R 0.041; Y 0.057; A -0.07; C 0.049; P -0.929; D 0.058; Q 0.003; F -0.086; H 0.145; L 0.087; G -0.089
L37: W -0.395; S -0.132; Y -0.141; H -0.107; P -0.089; E 0.026; A -0.095; G -0.413; C -0.15; M -0.014; D -0.254; R -0.526; F -0.231; V 0.048; N -0.359; T -0.03; Q -0.032; K -0.169
I38: V 0.027; K 0.05; G -0.006; R 0.089; M 0.009; T -0.122; Q -0.133; L -0.183; P -0.041; C -0.038; W -0.039; E 0.15; N 0.234; A -0.02; H -0.167; D -0.286; S 0.078
N33: Y -0.168; K -0.208; P -0.812; T -0.091; G -0.607; Q 0.093; F -0.082; M -0.143; W -0.204; H -0.023; C 0.034; S -0.014; E 0.055; L -0.755; R -0.148
L45: M -0.193; Q -0.833; E -0.851; S -0.881; I -0.302; A -0.862; W -0.862; V -0.603; C -0.444; G -0.906; R -0.865; P -0.92; H -0.449
Q28: M -0.179; G -0.264; F -0.479; Y -0.298; E 0.035; P -0.652; I -0.479; W -0.768; K -0.134; R -0.071; T -0.223; S -0.094; V -0.399; L -0.254; H -0.202; N -0.2
R30: F -0.628; L -0.033; I 0.064; T -0.158; G -0.385; A -0.022; K -0.02; Y -0.061; M 0.111; Q -0.188; P -0.232; C -0.112; V -0.172; S -0.074; E -0.088; W -0.453
W48: T -0.876; C -0.868; V -0.887; L -0.715; I -0.83; R -1; G -0.811; M -0.635; H -0.752; Q -0.808; S -0.928; P -0.923
M43: T 0.033; C 0.1; F -0.265; K -0.185; S 0.005; G 0.02; A 0.047; W -0.168; D 0.028; L -0.152; P -0.892; I -0.431; H 0.014; E 0.056; R -0.128; V -0.074
K46: Y -0.665; V -0.373; L -0.377; F -0.762; M -0.204; S -0.024; E -0.013; H -0.195; Q 0.124; C -0.432; G -0.337; P -0.915; N -0.044; I -0.581; W -0.541; T -0.061; R -0.018
P34: W -0.9; Q -0.067; M -0.658; N -0.331; A -0.245; K -0.561; E -0.24; L -0.874; G -0.299; H -0.268; V -1.11; S -0.145; R -0.26; T -0.366; F -0.479; D -0.268; C -0.7
N35: I -0.337; L -0.626; C -0.212; G -0.065; E -0.082; D -0.053; W -0.487; A -0.215; P -0.665; V -0.48; F -0.499; Y -0.307; Q -0.077; R -0.128; S -0.174; K -0.329; T -0.018; H -0.266
K47: Y -0.39; F -0.138; M -0.005; S -0.068; C -0.369; Q -0.19; N -0.033; L -0.099; G -0.31; P -0.956; W -0.124; H -0.11; V -0.487; D -0.177; T -0.149; E -0.235
S39: Y -0.616; L -0.184; N 0.142; M -0.071; F -0.434; W -0.47; P -0.685; T -0.016; E -0.103; Q 0.087; K 0; V -0.209; A 0.05; D -0.013; G -0.048; C -0.011; R 0.001; H -0.084
I29: V -0.302; E -0.174; P -0.808; L -0.456; G -0.927; C -0.741; W -0.979; S -0.846; R -0.857; F -0.765; T -0.752; A -0.768; H -0.389
E32: A -0.039; M -0.106; T -0.155; D 0.011; G -0.202; I -0.621; Q -0.1; K -0.48; C -0.249; V -0.316; R -0.126; N -0.074; Y -0.278; H -0.396; P -0.593; S -0.185; W -0.839
S36: C -0.184; M -0.778; R -0.449; Q -0.336; E -0.172; T -0.297; K -0.626; P -0.878; G -0.28; H -0.295; V -0.952; L -0.933; D 0.155; A -0.609; F -0.717; N -0.044
L44: V -0.171; T -0.561; P -0.867; S -0.914; R -0.796; I -0.371; G -0.93; E -0.902; Y -0.693; H -0.75; M -0.074; D -0.695; Q -0.784; W -0.806; A -0.391; C -0.116
S41: C -0.538; M -0.815; A 0.032; R -0.725; F -0.815; E -0.912; G -0.047; V -0.851; Y -0.67; I -0.74; P -0.972; N -0.748; T -0.211
F42: S 0.174; D 0.165; Y 0.023; V 0.042; M 0.102; I -0.03; Q 0.074; N 0.104; W 0.022; L -0.063; R 0.188; G 0.113; H 0.119; K 0.201; A 0.043; T 0.086
